Sequences and labels used below:
B1: PLK2 (parent)
chain: YAELGQCSVFPATDAPEQFISQVT
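Also: lentivirally expressed fusions sorted by FACS into six bins by GFP to DsRed ratio, PSI derived from sequencing read proportions per bin multiplied by bin number.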

The variants in this series derive from B1. Description: protein stability index of a GFP-peptide fusion (GPS, HEK-293T) (PSI 1-6); higher = more stable. The following applies: c terminus: a fixed tail appended.
For YAETGQCSVFPATDAPEQFISQVT [L4T], the protein stability index was determined as 3.05.

As for YAEYGQCSVFPATDAPEQFISQVT [L4Y], the protein stability index was 2.06. The result for YAEHGQCSVFPATDAPEQFISQVT [L4H] reads 3.25; that for YAESGQCSVFPATDAPEQFISQVT [L4S], 2.86; that for YAENGQCSVFPATDAPEQFISQVT [L4N], 3.09.

Regarding YAEEGQCSVFPATDAPEQFISQVT [L4E], the protein stability index was 4.42. The result for YAEGGQCSVFPATDAPEQFISQVT [L4G] reads 3.51; that for YAEVGQCSVFPATDAPEQFISQVT [L4V], 2.9; that for YAELGQCSVDPATDAPEQFISQVT [F10D], 4.2.

Turning to YAELGQCSVKPATDAPEQFISQVT [F10K], the protein stability index was found to be 3.26.

On to YAELGQCSVSPATDAPEQFISQVT [F10S], for which the protein stability index is 3.61. The same measure for YAELGQCSVLPATDAPEQFISQVT [F10L]: 3.27; for YAELGQCSVVPATDAPEQFISQVT [F10V]: 3.52; for YAELGQCSVYPATDAPEQFISQVT [F10Y]: 2.4. Turning to YAELGQCSVQPATDAPEQFISQVT [F10Q], the protein stability index is 3.46. Turning to YAELGQCSVFPARDAPEQFISQVT [T13R], the protein stability index is 2.22. Turning to YAELGQCSVFPAYDAPEQFISQVT [T13Y], the protein stability index was 1.62.

For the variant YAELGQCSVFPAVDAPEQFISQVT [T13V], the protein stability index came out at 2.2.

With YAELGQCSVFPAWDAPEQFISQVT [T13W], the protein stability index is 1.89.

As to YAELGQCSVFPADDAPEQFISQVT [T13D], the protein stability index was determined as 2.8. The result for YAFLGQCSVFPATDAPEQFISQVT [E3F] reads 1.94; that for YAYLGQCSVFPATDAPEQFISQVT [E3Y], 1.85. YADLGQCSVFPATDAPEQFISQVT [E3D]: the protein stability index was determined as 2.19. The same measure for YAALGQCSVFPATDAPEQFISQVT [E3A]: 1.85; for YAQLGQCSVFPATDAPEQFISQVT [E3Q]: 2.02. The same measure for YAGLGQCSVFPATDAPEQFISQVT [E3G]: 1.85. The result for YAELGDCSVFPATDAPEQFISQVT [Q6D] reads 3.3; that for YAELGPCSVFPATDAPEQFISQVT [Q6P], 2.26; that for YAELGLCSVFPATDAPEQFISQVT [Q6L], 2.03. As to YAELGICSVFPATDAPEQFISQVT [Q6I], the protein stability index came out at 1.57. The result for YAELGTCSVFPATDAPEQFISQVT [Q6T] reads 2.42. The same measure for YAELGYCSVFPATDAPEQFISQVT [Q6Y]: 1.95; for YAELGVCSVFPATDAPEQFISQVT [Q6V]: 1.94.

Turning to YAELGNCSVFPATDAPEQFISQVT [Q6N], the protein stability index amounted to 2.28. The result for YAELGQCSVFPATDAPEKFISQVT [Q18K] reads 2.08; that for YAELGQCSVFPATDAPECFISQVT [Q18C], 1.84.

For the variant YAELGQCSVFPATDAPEHFISQVT [Q18H], the protein stability index is 2.19.

On to YAELGQCSVFPATDAPEMFISQVT [Q18M], for which the protein stability index was found to be 2. In the case of YAELGQCSVFPATDAPEDFISQVT [Q18D], the protein stability index came to 2.98. Consider YAELGQCSVFPATDAPERFISQVT [Q18R], for which the protein stability index stood at 1.88. In the case of YAELGQCSVFPATDAPESFISQVT [Q18S], the protein stability index is 2.29.

YAELGQCSVFPATDAPEGFISQVT [Q18G]: the protein stability index came to 2.82. The result for YAELGQSSVFPATDAPEQFISQVT [C7S] reads 1.87; that for YAELGQNSVFPATDAPEQFISQVT [C7N], 1.89; that for YAELGQGSVFPATDAPEQFISQVT [C7G], 2.63.

For the variant YAELGQYSVFPATDAPEQFISQVT [C7Y], the protein stability index was 2.12. The result for YAELGQPSVFPATDAPEQFISQVT [C7P] reads 3.45; that for YAELGQHSVFPATDAPEQFISQVT [C7H], 1.91; that for YAELGQKSVFPATDAPEQFISQVT [C7K], 2.23. The result for YAELGQVSVFPATDAPEQFISQVT [C7V] reads 2.32; that for YAELGQCSVFPATDAPEQWISQVT [F19W], 1.9. The result for YAELGQCSVFPATDAPEQEISQVT [F19E] reads 3.01; that for YAELGQCSVFPATDAPEQHISQVT [F19H], 3.16. With YAELGQCSVFPATDAPEQIISQVT [F19I], the protein stability index stood at 2.28. The same measure for YAELGQCSVFPATDAPEQYISQVT [F19Y]: 1.94; for YAELGQCSVFPATDAPEQNISQVT [F19N]: 2.92.

YAELGQCSVFPATDAPEQRISQVT [F19R]: the protein stability index turned out to be 3.85. The result for YAELGQCSVFPATDAPEQDISQVT [F19D] reads 2.87; that for YAELGQCSVFPATDAPEQAISQVT [F19A], 2.19. The result for YAELGQCSVFPATDAPEQSISQVT [F19S] reads 2.01; that for YAELGQCSVFPETDAPEQFISQVT [A12E], 3.42. The same measure for YAELGQCSVFPQTDAPEQFISQVT [A12Q]: 2.6; for YAELGQCSVFPCTDAPEQFISQVT [A12C]: 1.87; for YAELGQCSVFPRTDAPEQFISQVT [A12R]: 1.63.

Take YAELGQCSVFPWTDAPEQFISQVT [A12W]: the protein stability index came out at 2.14.

As for YAELGQCSVFPNTDAPEQFISQVT [A12N], the protein stability index was determined as 2.33. In the case of YAELGQCSVFPKTDAPEQFISQVT [A12K], the protein stability index amounted to 2.13. The result for YAELGQCSVFPPTDAPEQFISQVT [A12P] reads 2.47. In the case of YAELGQCSVFPLTDAPEQFISQVT [A12L], the protein stability index worked out at 1.66. The same measure for YAELGQCSVFPATDAPEQFILQVT [S21L]: 2.59.

Take YAELGQCSVFPATDAPEQFIRQVT [S21R]: the protein stability index is 1.76. The same measure for YAELGQCSVFPATDAPEQFITQVT [S21T]: 2.49. The result for YAELGQCSVFPATDAPEQFIWQVT [S21W] reads 2.92; that for YAELGQCSVFPATDAPEQFIPQVT [S21P], 2.41. The result for YAELGQCSVFPATDAPEQFIFQVT [S21F] reads 1.82. In the case of YAELGQCSVFPATDAKEQFISQVT [P16K], the protein stability index came to 1.87. The same measure for YAELGQCSVFPATDANEQFISQVT [P16N]: 2.35. The same measure for YAELGQCSVFPATDAQEQFISQVT [P16Q]: 2.44; for YAELGQCSVFPATDASEQFISQVT [P16S]: 2.33. With YAELGQCSVFPATDAVEQFISQVT [P16V], the protein stability index is 1.66. The result for YAELGQCSVFPATDAHEQFISQVT [P16H] reads 1.58; that for YAELGQCSVFPATDATEQFISQVT [P16T], 2.05. The same measure for YAELGQCSVFPATDAREQFISQVT [P16R]: 1.84; for YAELGQCSVFPATVAPEQFISQVT [D14V]: 1.78. Regarding YAELGQCSVFPATKAPEQFISQVT [D14K], the protein stability index amounted to 1.96. The same measure for YAELGQCSVFPATSAPEQFISQVT [D14S]: 2.09. The same measure for YAELGQCSVFPATYAPEQFISQVT [D14Y]: 2.56. The same measure for YAELGQCSVFPATMAPEQFISQVT [D14M]: 1.75. For YAELGQCSVFPATGAPEQFISQVT [D14G], the protein stability index came to 2. Take YAELGQCSVFPATQAPEQFISQVT [D14Q]: the protein stability index was 1.91. The result for YAELGQCSVFPATCAPEQFISQVT [D14C] reads 1.86. The result for YAELGQCSVFPATHAPEQFISQVT [D14H] reads 1.97; that for YAELGQCSVFPATLAPEQFISQVT [D14L], 1.62; that for YAELGQCSVFPATDAPEQFNSQVT [I20N], 2.65.
